{"source": "paper PMC3094545", "about": "(Structure (London, England : 1993), 2011)", "target": "the molecule itself", "experiment": "crystal structure", "data": [{"protein": "cytoplasmic domain of ZntB from Salmonella enterica serovar Typhimurium (domain or fragment) MEAIKGSDVNVPDAVFAWLLDGRGGVKPLEDNDVIDSQHPCWLHLNYTHPDSARWLASTPLLPNNVRDALAGESSRPRVSRMGEGTLITLRCINGSTDERPDQLVAMRLYMDERFIVSTRQRKVLALDDVVSDLQEGTGPVDCGGWLVDVCDALTDHASEFIEELHDKIIDLEDNLLDQQIPPRGFLALLRKQLIVMRRYMAPQRDVYARLASERLPWMSDDHRRRMQDIADRLGRGLDEIDACIARTGIMADEIAQVMQES", "values": [{"measurement": "stoichiometry N", "result": 5}]}]}
